Patent US20170066831A1 (Janssen / Centocor, published 2017)

Key:
[1] = target: T1, HH-ST2L variant 93NL94 (substitution 93TF94 to 93NL94) (human, UniProt Q01638 19-205); assay: ProteOn SPR, mAb captured by anti-Fc, ST2L-D1D2 variant injected
T1 chain: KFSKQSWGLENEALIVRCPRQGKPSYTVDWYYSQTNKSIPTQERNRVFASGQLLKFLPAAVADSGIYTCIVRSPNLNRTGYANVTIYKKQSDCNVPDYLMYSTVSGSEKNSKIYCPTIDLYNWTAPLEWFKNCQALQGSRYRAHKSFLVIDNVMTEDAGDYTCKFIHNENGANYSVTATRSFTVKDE
Protocol: (§1) Binding studies were performed using the ProteOn XPR36 Protein Interaction Array system (Bio-Rad) (Bravman T, et al. Anal Biochem 358:281-288, 2006). […] Individual anti-ST2L mAb was then captured by flowing (1 μg/mL) antibody solution prepared in PBS containing 0.5% Nonidet P-40 and 0.5% Na-deoxycholate). The signal in the surfaces reached ˜250 resonance units (RU, 1 RU=1 pg protein/mm²) in the anti-Fc-coated surfaces, confirming that these antibodies specifically capture anti-ST2L mAbs. After 90° rotation of the fluid system, wild type of ST2L-D1D2 or variant proteins (0.5 mg/mL in PBS containing 0.5% Nonidet P-40 and 0.5% Na-deoxycholate) was injected in the parallel flow channels. All of these assays were performed at 25° C. The ST2L-D1D2-dependent signals on the surfaces were obtained by double referencing, subtracting the response observed on surfaces immobilizing the antibodies alone, and the signal observed injecting the vehicle alone (which allows correction for binding-independent responses). The resulting sensorgrams were fitted by the simplest 1:1 interaction model (ProteOn analysis software), to obtain the corresponding association and dissociation rate constants (kₐ and kd).
(§2) Residue numbering is according to full length human ST2L of SEQ ID NO: 1.

[2] = target: T2, human ST2L extracellular domain with C-terminal His6 tag (human, UniProt Q01638 19-328); assay: RLB ELISA: biotinylated IL-33 on coated huST2L-ECD, antibody titrated
T2 construct: also called huST2L-ECD; ST2L-ECD
T2 sequence: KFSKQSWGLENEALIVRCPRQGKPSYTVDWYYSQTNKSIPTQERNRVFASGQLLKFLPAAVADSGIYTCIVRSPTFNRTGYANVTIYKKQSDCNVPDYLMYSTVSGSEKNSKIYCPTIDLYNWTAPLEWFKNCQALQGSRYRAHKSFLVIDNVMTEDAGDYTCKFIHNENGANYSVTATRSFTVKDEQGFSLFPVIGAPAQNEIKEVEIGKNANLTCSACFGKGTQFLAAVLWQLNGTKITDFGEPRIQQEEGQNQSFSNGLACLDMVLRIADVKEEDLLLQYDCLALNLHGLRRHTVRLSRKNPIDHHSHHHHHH
Procedure, shortened: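 Plates coated 16 h at 4 °C with His6-tagged ST2L-ECD (human aa 19-328, 4 μg/ml; cyno aa 19-321, 2 μg/ml). Titrated mAbs applied 1 h at RT, then biotinylated IL-33 added 30 min (human 112-270 at 100 ng/ml final; cyno 112-269 at 200 ng/ml final). Bound ligand detected with streptavidin-HRP/TMB, OD450.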

[3] = target: T3, human ST2L, full length, on cells (human, UniProt Q01638 19-556); assay: cell-based or functional assay
T3 sequence: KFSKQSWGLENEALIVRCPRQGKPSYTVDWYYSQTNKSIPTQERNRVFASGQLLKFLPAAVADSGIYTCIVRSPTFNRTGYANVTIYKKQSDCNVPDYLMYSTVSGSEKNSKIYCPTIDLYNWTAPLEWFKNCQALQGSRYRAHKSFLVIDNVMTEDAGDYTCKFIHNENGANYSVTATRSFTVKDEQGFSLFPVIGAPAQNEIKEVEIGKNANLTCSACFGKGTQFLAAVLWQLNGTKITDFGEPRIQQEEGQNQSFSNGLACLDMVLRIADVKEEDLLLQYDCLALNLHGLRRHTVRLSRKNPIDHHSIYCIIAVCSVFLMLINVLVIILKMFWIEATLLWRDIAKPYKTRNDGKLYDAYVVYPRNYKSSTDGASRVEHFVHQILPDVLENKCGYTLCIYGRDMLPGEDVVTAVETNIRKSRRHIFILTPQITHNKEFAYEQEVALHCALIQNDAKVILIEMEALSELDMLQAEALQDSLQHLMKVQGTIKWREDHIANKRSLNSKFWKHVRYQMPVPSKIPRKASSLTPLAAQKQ

[4] = target: T4, HH-ST2L (human ST2L Domains I and II), wild type (human, UniProt Q01638 19-205); assay: ProteOn SPR, mAb captured by anti-Fc, ST2L-D1D2 injected
T4 construct: also called ST2L-D1D2
T4 sequence: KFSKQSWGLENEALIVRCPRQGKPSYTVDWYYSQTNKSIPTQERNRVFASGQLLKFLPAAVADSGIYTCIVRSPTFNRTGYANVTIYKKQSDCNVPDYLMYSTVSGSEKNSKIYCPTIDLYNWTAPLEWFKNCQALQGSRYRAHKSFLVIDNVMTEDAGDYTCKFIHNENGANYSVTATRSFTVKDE
Protocol: as §1, §2

[5] = target: T4, HH-ST2L (human ST2L Domains I and II), …; assay: SPR, ProteOn XPR36, 25 C; mAb captured on anti-Fc surface, ST2L-D1D2 (HH-ST2L) protein injected; 1:1 model
Protocol: as §1

Kd [1]: ~0.0495 nM
fold reduction of binding affinity against wild type ST2L-D1D2 [1]: ~5 fold
IC50 [2]: 0.47 µg/mL
RGA IC50 [3]: 0.61 µg/mL
Kd [4]: ~0.0108 nM
koff [5]: 0.000122 s⁻¹
kon [5]: 1.14e+07 M⁻¹ s⁻¹
B1: STLM208 (antibody, V domains shown)
VH: EVQLLESGGGLVQPGGSLRLSCAASGFTFSIYDMIWVRQAPGKGLEWVSSIRGEGGGTYYADSVKGRFTISRDNSKNTLYLQMNSLRAEDTAVYYCARDPWSTEGSFFVLDYWGQGTLVTVSS
VL: EIVLTQSPATLSLSPGERATLSCRASQSVDDDLAWYQQKPGQAPRLLIYDASNRATGIPARFSGSGSGTDFTLTISSLEPEDFAVYYCQQYITAPLTFGQGTKVEIK
notes: frameworks VH3-23 / Vk-L6
